The values below come from patent US7592163B2 (The Board of Trustees of the University of Illinois, priority 2004, dated 2009).

For series [1], the target named is T1, N. crassa XR (Neurospora crassa, UniProt Q7SD67).
T1 sequence (Q7SD67 1-322): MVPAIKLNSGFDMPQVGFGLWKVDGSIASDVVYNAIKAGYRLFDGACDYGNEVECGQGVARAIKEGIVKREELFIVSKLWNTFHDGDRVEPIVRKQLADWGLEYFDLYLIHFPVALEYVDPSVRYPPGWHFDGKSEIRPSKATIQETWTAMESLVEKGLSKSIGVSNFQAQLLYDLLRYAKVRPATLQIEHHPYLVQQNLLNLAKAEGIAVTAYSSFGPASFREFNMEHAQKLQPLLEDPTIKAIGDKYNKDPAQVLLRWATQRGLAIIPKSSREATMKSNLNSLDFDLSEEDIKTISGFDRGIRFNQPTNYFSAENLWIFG
As to the kind of experiment: Kinetic analysis of N. crassa XR: initial rates, NAD(P)H consumption at 340 nm, with cofactors and sugar substrates. The format is biochemical. The conditions noted are these: for acts as substrate for N. crassa XR: NADPH as the cofactor; for fold difference in catalytic efficiency (kcat/KM) between NADPH and NADH: NADPH favoured over NADH; for kcat: xylose reduction with the named coenzyme, 25° C., 50 mM MOPS pH 6.3. The protocol: Michaelis-Menten constants (KM) were determined for both cofactors as well as for xylose with either cofactor. The maximum turnover number (kcat) was also determined with both cofactors. […] Xylose concentrations were varied from 10 to 250 mM while either cofactor concentration was held at 160 μM.
Analysis of substrate specificity.
Kinetic Analysis. […] All initial rate assays were carried out at 25° C. in 50 mM MOPS pH 6.3 using a Varian Cary 100 Bio UV-visible spectrophotometer unless otherwise noted. The reaction was initiated by addition of 0.1-1 μg of XR. […] The data were then converted to turnover number and fitted by non-linear regression analysis to the Michaelis-Menten equation using Origin 5.0. […] All assays were performed in duplicate or triplicate at least two times. The kinetic data presented represent averages of statistically relevant measurements and with their associated standard deviations.

Substrate in series [2]: OC1OC[C@H](O)[C@H](O)[C@H]1O
The series is described as above. Format: biochemical, Neurospora crassa. As to conditions: other: KM of the sugar substrate, NADPH as cofactor, 25° C., 50 mM MOPS pH 6.3.

Substrate in series [3]: OC1OC[C@@H](O)[C@@H](O)[C@H]1O
The series is described as above. The conditions noted are these: other: KM of the sugar substrate, NADPH as cofactor, 25° C., 50 mM MOPS pH 6.3. The format is biochemical, Neurospora crassa.

Substrate in series [4]: OC1OC[C@@H](O)[C@H](O)[C@H]1O
Described as above. The format is biochemical, Neurospora crassa. As to conditions: other: KM of the sugar substrate, NADPH as cofactor, 25° C., 50 mM MOPS pH 6.3.

The conditions of series [5]: literature, cited from earlier work; for kcat / Km: with NADPH as cofactor; for Km: read-out: KM, Xylose.

As to `OC[C@H]1O[C@@](CO)(O[C@H]2O[C@H](CO)[C@@H](O)[C@H](O)[C@H]2O)[C@@H](O)[C@@H]1O` [sucrose], in series [1], the “acts as substrate for N. crassa XR” value was “did not act as substrates”.
On to `O=C(CO)[C@@H](O)[C@H](O)[C@H](O)CO` [D-fructose], for which the “acts as substrate for N. crassa XR” value in series [1] is “did not act as substrates”.
In the case of “Nicotinamide adenine dinucleotide reduced [NADH]”, in series [1], the “fold difference in catalytic efficiency (kcat/KM) between NADPH and NADH” value was determined as 100 fold; the kcat amounted to 5.17 ± 0.167 s⁻¹.
For `O=C[C@@H](O)[C@H](O)[C@H](O)CO` [D-arabinose], the “acts as substrate for N. crassa XR” value is reported as “did not act as substrates” in series [1] and “activity” in series [1] (listed as D-arabinos).
Take “Nicotinamide adenine dinucleotide phosphate reduced [NADPH]”: in series [1], the “fold difference in catalytic efficiency (kcat/KM) between NADPH and NADH” value was 100 fold; the turnover number (kcat) amounted to 60 ± 1.67 s⁻¹.

B1: N. crassa XR (Neurospora crassa OR74A) (protein)
chain: T1 sequence (Q7SD67 1-322)
Take B1: the Michaelis constant (Km) in series [2] is listed as 40 ± 10 mM; in series [3], 70 ± 10 mM; in series [4], 34 mM. In addition, the figures for the kcat in series [2] and in series [4] were 30 ± 1.67 s⁻¹ and 60 ± 3.33 s⁻¹, respectively. Besides, the kcat/Km was 750 M⁻¹ s⁻¹ in series [2], 750 M⁻¹ s⁻¹ in series [3] and 1830 M⁻¹ s⁻¹ in series [4].

B2: S. cerevisiae: xylose reductase from S. cerevisiae, literature (protein, UniProt P38715 2-327, looked up)
NADPH-dependent aldose …: SSLVTLNNGLKMPLVGLGCWKIDKKVCANQIYEAIKLGYRLFDGACDYGNEKEVGEGIRKAISEGLVSRKDIFVVSKLWNNFHHPDHVKLALKKTLSDMGLDYLDLYYIHFPIAFKYVPFEEKYPPGFYTGADDEKKGHITEAHVPIIDTYRALEECVDEGLIKSIGVSNFQGSLIQDLLRGCRIKPVALQIEHHPYLTQEHLVEFCKLHDIQVVAYSSFGPQSFIEMDLQLAKTTPTLFENDVIKKVSQNHPGSTTSQVLLRWATQRGIAVIPKSSKKERLLGNLEIEKKFTLTEQELKDISALNANIRFNDPWTWLDGKFPTFA
As to B2, in series [5], the kcat was 14.3 s⁻¹ and the Km is 13.6 mM.

B3: P. stipitus: NADPH-dependent xylose reductase from P. stipitus, literature (protein, UniProt P31867 1-318, looked up)
NAD(P)H-dependent D-xylose …: MPSIKLNSGYDMPAVGFGCWKVDVDTCSEQIYRAIKTGYRLFDGAEDYANEKLVGAGVKKAIDEGIVKREDLFLTSKLWNNYHHPDNVEKALNRTLSDLQVDYVDLFLIHFPVTFKFVPLEEKYPPGFYCGKGDNFDYEDVPILETWKALEKLVKAGKIRSIGVSNFPGALLLDLLRGATIKPSVLQVEHHPYLQQPRLIEFAQSRGIAVTAYSSFGPQSFVELNQGRALNTSPLFENETIKAIAAKHGKSPAQVLLRWSSQRGIAIIPKSNTVPRLLENKDVNSFDLDEQDFADIAKLDINLRFNDPWDWDKIPIFV
Take B3: in series [5], the “Optimal pH” value is 6.0, the kcat was 25 s⁻¹ and the Michaelis constant (Km) is 42 mM.

B4: C. tenuis: xylose reductase from Candida tenuis, literature (protein, UniProt O74237 1-322, looked up)
NAD(P)H-dependent D-xylose …: MSASIPDIKLSSGHLMPSIGFGCWKLANATAGEQVYQAIKAGYRLFDGAEDYGNEKEVGDGVKRAIDEGLVKREEIFLTSKLWNNYHDPKNVETALNKTLADLKVDYVDLFLIHFPIAFKFVPIEEKYPPGFYCGDGNNFVYEDVPILETWKALEKLVAAGKIKSIGVSNFPGALLLDLLRGATIKPAVLQVEHHPYLQQPKLIEFAQKAGVTITAYSSFGPQSFVEMNQGRALNTPTLFAHDTIKAIAAKYNKTPAEVLLRWAAQRGIAVIPKSNLPERLVQNRSFNTFDLTKEDFEEIAKLDIGLRFNDPWDWDNIPIFV
On to B4, for which, in series [5] (NADH as cofactor), the “NADH-dependent XR kcat” value is 18.33 s⁻¹. In series [5], the “Optimal pH” value is recorded as 6.0, the kcat was 21.67 s⁻¹ and the Km was 72 mM.
